Patent US8329186B2, “Treatment of inflammation using BST2 inhibitor” (Isu Abxis Co., Ltd, priority 2004, dated 2012)

Key:
U937 cells [1] = assay: Direct binding of U937 cells to Bst2 decoy-coated plates; set-up: species or system human; settings: Bst2 decoy-coated wells vs BSA
Experimental: Flat-bottomed 96-well plates were coated with Bst2 decoy with sodium bicarbonate (100 mM, pH 9.5) for 2 hrs at 37° C. The plates were washed with PBS (pH 7.4) and incubated with 1% bovine serum albumin (BSA) at 25° C. After a rinse with PBS (pH 7.4) containing 1 mM CaCl2 and 0.5 mM MgCl2, U937 cells (1×10^6/ml) were added to each dBst2-coated well. After 2 hrs of incubation at 37° C., unbound cells were removed by two gentle washes with RPMI1640 media (Gibco-BRL) and bound cells were fixed with 2% paraformaldehyde for 20 minutes, washed, and stained with 0.5% crystal violet. After 30 minutes at 25° C., the plates were washed with PBS and bound cells were counted.

[2] = tested on: OVA-induced atopic dermatitis; assay: OVA-induced atopic dermatitis model in mice; format: in vivo, BALB/c mice
Experimental: An experimental model of atopic dermatitis based on immunity against ovalbumin (OVA) was utilized to test Bst2 decoy for efficacy in atopic dermatitis. BALB/c mice were immunized at the beginning of weeks 1, 2, and 3 with intraperitoneal injections of OVA/ALUM. During week 4, an OVA-soaked patch was applied to the shaved backs of the animals. The patches were removed and 5 daily doses of Bst2 decoy was administered to the animal by intravenous injections of 10 mg/kg during week 5. OVA-soaked patches were applied again to the animals over week 6 and the animals were sacrificed for evaluation at the beginning of week 7 (FIG. 43).
Serum was prepared from blood sample collected from the sacrificed animals. OVA-specific IgE levels were determined by ELISA assays in which OVA was coated on the plate, OVA-specific immunoglobulin present in the serum samples allowed to blind, and IgE levels ascertained utilizing anti-IgE specific antibodies.

TNF-alpha, IL-6, HMGB-1 = assay: CLP sepsis model: plasma inflammatory proteins (ELISA); format: in vivo, rat
Source text: (§1) A rat model of sepsis was induced through cecal ligation and puncture (CLP) as described previously (Wichterman K A, Baue A E, Chaudry I H: Sepsis and septic shock-a review of laboratory models and a proposal. J Surg Res 29:189-201, 1980). An incision was made along the midline of the abdomen on an anesthetized animal. The cecum was exteriorized, ligated and punctured with a stainless steel needle. An appropriate amount of fecal matter was then extruded. The gauge of the needle, number of punctures and amount of fecal matter extruded are all factors in determining the severity of sepsis and mortality. […] The incision was sutured and appropriate post-operative care was administered. Sham-operated animals were subjected to similar laparotomy and intestinal manipulation, however, the cecum was neither ligated nor punctured. Immediately or 6 hours after the CLP procedure, animals were given intravenous injection of vehicle or a Bst2 decoy.
Blood samples were collected at 1, 3, 6, 18 and 24 hours post-CLP. Plasma levels of representative inflammatory response proteins were measured using ELISA kits; TNF-alpha(BD Biosciences, San Diego, Calif.) and IL-6(BD Biosciences, San Diego, Calif.) at 1, 3, and 6 hours, HMGB-1 (Shino-Test Corp., Japan) at 18 and 24 hours. Typically, after CLP in rodents, TNF-alpha spikes at 3 hours and IL-6 spikes at 6 hours.

U937 cells [3] = assay: Homotypic aggregation of U937 cells induced by PMA and LPS; format: cell-based, human; settings: decoy medium from CHO-S cells, in comparison with control medium
Experimental: Expression levels of Bst2 protein were examined during aggregation of human U937 monocytic cells. […] To determine the degree of cell aggregation, the size of formed cell aggregates was measured as pixel intensity, using Adobe's Photoshop software, version 7.0. The standard deviation values shown in drawings were calculated from mean values of six randomly selected aggregates. Thereafter, all used cells were recovered, and total RNA was isolated and subjected to RT-PCR using a set of primers of SEQ ID NOS:3 and 4 to assess Bst2 expression levels.
1×10^6 U937 cells, which had been cultured under the aforementioned conditions, were seeded onto a 96-well cell culture plate (NUNC) and treated with PMA (2 ng/ml, Calbiochem) and LPS (10 μg/ml, Calbiochem) for 24 hrs. The cells were then observed for the degree of homotypic cell aggregation under a phase-contrast inverted microscope (Olympus 1X71, state, USA).
U937 cells were pretreated with PMA and LPS to induce cell aggregation, and were treated with serial dilutions of medium (decoy medium) containing a Bst2 decoy transiently expressed in CHO-S cells.

mouse model of asthma = assay: Ovalbumin-induced mouse model of asthma: infiltrating cells in bronchoalveolar lavage; format: in vivo; settings: ovalbumin-sensitized mice
Experimental: A mouse model of asthma was prepared by sensitizing mice (C57B6, 8 weeks) with ovalbumin. In detail, mice were initially sensitized for five continuous days by intranasal injection of ovalbumin. After three weeks, mice were intranasally sensitized again with ovalbumin for five continuous days. One week after the secondary sensitization, mice were challenged intranasally with ovalbumin three times every 24 hrs to induce asthma. Herein, a Bst2 decoy was intravenously injected into mice 30 min before sensitization with ovalbumin, and was injected into mice 30 min before the first sensitization and the last injection of ovalbumin. Three days after the last injection, serum samples, lung tissues, and the like were collected from mice.
A mouse model of asthma was prepared as described in Example 8-1.
The effect of Bst2 decoy-Fc fusions on immune cell infiltration was assessed as described in Example 8-2. When ovalbumin-sensitized mice were treated with a Bst2 decoy, the total number of infiltrating cells was decreased and, especially, the number of neutrophils, eosinophils and lymphocytes except for macrophage was decreased in bronchoalveolar lavage (BAL) (FIG. 27).
A mouse model of asthma was prepared as described in Example 8-1. The effect of anti-Bst2/Damp1 antibodies on immune cell infiltration was assessed as described in Example 8-2. […]

CLP sepsis = assay: Cecal ligation and puncture (CLP) sepsis model: survival; format: in vivo, rat
Source text: as §1
Mortality of animals was monitored for up to 14 days after the procedure. […] 3, 10, and 30 mg/kg doses were administered immediately following the CLP procedure and daily survival monitored over the course of 14 days.

B1: Bst2 decoy: soluble Bst2 protein fragment having the amino acid sequence of SEQ ID NO:1; extracellular region of human Bst2, six-histidine tag (protein)
chain: NSEACRDGLRAVMECRNVTHLLQQELTEAQKGFQDVEAQAATCNHTVMALMASLDAEKAQGQKKVEELEGEITTLNHKLQDASAEVERLRRENQVLSVRIADKKYYPSSQDHHHHHH
In the case of B1, the “attachment of U937 cells to coated wells” value (U937 cells [1]) is reported as “attached”, the “formation of lesions after OVA-soaked patch” value ([2]; 10 mg/kg intravenous, 5 daily doses during week 5, end of week 6) is reported as “little if any formation of lesions” and the “serum OVA-specific IgE levels” value ([2]; ELISA) is reported as “substantial reduction”. For the same molecule, the “inflammation in H&E stained skin sections” value ([2]; to a level similar to the negative control group) was “marked decrease in inflammation”, the “plasma IL-6 spike” value (TNF-alpha, IL-6, HMGB-1; 1, 3 and 6 hours post-CLP) was “substantially suppressed” and the “plasma TNF-alpha response” value (TNF-alpha, IL-6, HMGB-1; 1, 3 and 6 hours post-CLP) was “virtually absent”. For the same molecule, the “plasma HMGB-1” value (TNF-alpha, IL-6, HMGB-1; 18 and 24 hours post-CLP) was “reducing both the amount and rate of increase”, the “decrease of U937 cell aggregation induced by PMA and LPS” value (U937 cells [3]) was 50% and the “number of infiltrating cells in bronchoalveolar lavage (total, neutrophils, eosinophils, lymphocytes)” value (mouse model of asthma) was “remarkably decreased”. The “14 day survival rate” value (CLP sepsis; 3 mg/kg intravenous immediately following CLP) was 37.5%, the “14 day survival rate” value (CLP sepsis; 10 mg/kg intravenous immediately following CLP) was 80% and the “14 day survival rate” value (CLP sepsis; 30 mg/kg intravenous immediately following CLP) was 75%. For the same molecule, the 14-day survival rate (CLP sepsis; administration 6 hours post-CLP) was 70%.
